The values that follow come from patent publication US20180127735A1.

One series has as its target protein C (UniProt P04070).
Series [1] has as its target thrombin (Homo sapiens (Human)) (UniProt P00734). The series is described as follows: cell-based or functional assay.

A value given as a limit tells only on which side of the number the result lay.

With thrombin, the “enzyme-mediated conversion of protein C into activated protein C (aPC), thrombin in the absence of TM” value in the series with protein C is listed as “minimal activated protein C (aPC) activity was generated”.
“full-length thrombomodulin (from UniProt P07204 19-575) (receptor)”: the clotting time of fibrinogen by thrombin with thrombomodulin at saturating concentrations in series [1] was < 305 min.
